The results in this text go back to US20210147508A1 (ACCELERON PHARMA, published 2021).

Test in all cases: cell-based or functional assay
In one assay the target is T1, TGFβ3 (human, UniProt P10600 301-412).
T1 sequence (looked up): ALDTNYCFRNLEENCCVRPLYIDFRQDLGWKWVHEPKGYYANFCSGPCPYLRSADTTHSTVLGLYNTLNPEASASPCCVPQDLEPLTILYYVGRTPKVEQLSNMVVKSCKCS

The next assay deals with TGFβ1 (human, UniProt P01137 279-390).
For a further assay, the target named is T2, TGFβ2 (human, UniProt P61812 303-414).
T2 sequence (looked up): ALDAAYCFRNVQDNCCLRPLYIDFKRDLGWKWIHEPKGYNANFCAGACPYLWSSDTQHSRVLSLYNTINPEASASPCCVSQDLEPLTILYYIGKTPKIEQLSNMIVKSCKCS

TGFβ1, sequence (P01137 279-390 limits assumed): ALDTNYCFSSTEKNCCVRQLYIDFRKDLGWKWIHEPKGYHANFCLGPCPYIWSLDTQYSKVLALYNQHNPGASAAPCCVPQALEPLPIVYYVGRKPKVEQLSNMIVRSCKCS

B1: TGFβRIISHORT-Fc:ALK5-Fc heterodimer (Fc fusion)
chain 1: TIPPHVQKSVNNDMIVTDNNGAVKFPQLCKFCDVRFSTCDNQKSCMSNCSITSICEKPQEVCVAVWRKNDENITLETVCHDPKLPYHDFILEDAASPKCIMKEKKKPGETFFMCSCSSDECNDNIIFSEEYNTSNPDTGGGTHTCPPCPAPELLGGPSVFLFPPKPKDTLMISRTPEVTCVVVDVSHEDPEVKFNWYVDGVEVHNAKTKPREEQYNSTYRVVSVLTVLHQDWLNGKEYKCKVSNKALPAPIEKTISKAKGQPREPQVYTLPPSRKEMTKNQVSLTCLVKGFYPSDIAVEWESNGQPENNYKTTPPVLKSDGSFFLYSKLTVDKSRWQQGNVFSCSVMHEALHNHYTQKSLSLSPGK
chain 2: ALLPGATALQCFCHLCTKDNFTCVTDGLCFVSVTETTDKVIHNSMCIAEIDLIPRDRPFVCAPSSKTGSVTTTYCCNQDHCNKIELPTTVKSSPGLGPVETGGGTHTCPPCPAPELLGGPSVFLFPPKPKDTLMISRTPEVTCVVVDVSHEDPEVKFNWYVDGVEVHNAKTKPREEQYNSTYRVVSVLTVLHQDWLNGKEYKCKVSNKALPAPIEKTISKAKGQPREPQVYTLPPSREEMTKNQVSLTCLVKGFYPSDIAVEWESNGQPENNYDTTPPVLDSDGSFFLYSDLTVDKSRWQQGNVFSCSVMHEALHNHYTQKSLSLSPG
Regarding B1, the “IC50 (pM), inhibition of TGFβ3 (270 pg/mL), CAGA12-luciferase reporter in A549 cells” value with TGFβ3 was under 90 pM. The “IC50 (pM), inhibition of TGFβ1 (640 pg/mL), CAGA12-luciferase reporter in A549 cells” value with TGFβ1 was under 350 pM. The “IC50 (pM), inhibition of TGFβ2 (480 pg/mL), CAGA12-luciferase reporter in A549 cells” value in the assay with TGFβ2 was about 200 pM.

B2: TGFβRIILONG-Fc:ALK5-Fc heterodimer (Fc fusion)
chain 1: TIPPHVQKSDVEMEAQKDEIICPSCNRTAHPLRHINNDMIVTDNNGAVKFPQLCKFCDVRFSTCDNQKSCMSNCSITSICEKPQEVCVAVWRKNDENITLETVCHDPKLPYHDFILEDAASPKCIMKEKKKPGETFFMCSCSSDECNDNIIFSEEYNTSNPDTGGGTHTCPPCPAPELLGGPSVFLFPPKPKDTLMISRTPEVTCVVVDVSHEDPEVKFNWYVDGVEVHNAKTKPREEQYNSTYRVVSVLTVLHQDWLNGKEYKCKVSNKALPAPIEKTISKAKGQPREPQVYTLPPSRKEMTKNQVSLTCLVKGFYPSDIAVEWESNGQPENNYKTTPPVLKSDGSFFLYSKLTVDKSRWQQGNVFSCSVMHEALHNHYTQKSLSLSPGK
chain 2: ALLPGATALQCFCHLCTKDNFTCVTDGLCFVSVTETTDKVIHNSMCIAEIDLIPRDRPFVCAPSSKTGSVTTTYCCNQDHCNKIELPTTVKSSPGLGPVETGGGTHTCPPCPAPELLGGPSVFLFPPKPKDTLMISRTPEVTCVVVDVSHEDPEVKFNWYVDGVEVHNAKTKPREEQYNSTYRVVSVLTVLHQDWLNGKEYKCKVSNKALPAPIEKTISKAKGQPREPQVYTLPPSREEMTKNQVSLTCLVKGFYPSDIAVEWESNGQPENNYDTTPPVLDSDGSFFLYSDLTVDKSRWQQGNVFSCSVMHEALHNHYTQKSLSLSPG
In the case of B2, the “IC50 (pM), inhibition of TGFβ3 (270 pg/mL), CAGA12-luciferase reporter in A549 cells” value in the assay with TGFβ3 came out at 35 pM. In addition, in the assay with TGFβ1, the “IC50 (pM), inhibition of TGFβ1 (640 pg/mL), CAGA12-luciferase reporter in A549 cells” value turned out to be 204 pM. The “IC50 (pM), inhibition of TGFβ2 (480 pg/mL), CAGA12-luciferase reporter in A549 cells” value with TGFβ2 was found to be 154 pM.
